Reference: patent US20230192860A1 (Bristol-Myers Squibb, published 2023)
Positions count from the first letter of the chain named. In names and notes the source's numbering stands. Blank lines part the entries; values can stand above or below the binder they belong to.

Legend:
[1] = molecular target: T1, monovalent hVISTA-ECD with polyhistidine tail (SEQ ID NO: 325) (human, UniProt Q9H7M9 33-193); test: SPR, mAb captured on Protein A chip, hVISTA injected, PBST pH 6.0, 37 C
T1 construct: also called hVISTA-ECD 6-His tag; human VISTA
T1 sequence (Q9H7M9 other isoform, or with tags, fused parts or gaps limits assumed): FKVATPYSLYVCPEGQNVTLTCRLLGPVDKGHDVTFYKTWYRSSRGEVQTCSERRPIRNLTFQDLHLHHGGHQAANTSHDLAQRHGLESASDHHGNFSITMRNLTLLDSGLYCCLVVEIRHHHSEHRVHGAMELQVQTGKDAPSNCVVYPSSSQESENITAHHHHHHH

[2] = molecular target: T1, monovalent hVISTA-ECD with …; test: SPR, mAb captured on Protein A chip, hVISTA injected, PBST pH 7.4, 37 C
hVISTA-ECD 6-His tag [3] = molecular target: T2, hVISTA-ECD 6-His tag (human, UniProt Q9H7M9 33-193); test: SPR 37 C, Ab on Protein A, pH 6.0
T2 construct: also called monovalent hVISTA-ECD; human VISTA
T2 sequence (Q9H7M9 other isoform, or with tags, fused parts or gaps limits assumed): as above

hVISTA-ECD 6-His tag [4] = molecular target: T2, hVISTA-ECD 6-His tag; test: SPR 37 C, Ab on Protein A, pH 7.4

B1: P1-077865 (P1-068748 H31S) (antibody, V domains shown)
VH: QVQLVESGGGVVQPGRSLRLSCAASGFTFSSHAMHWVRQAPGKGLEWVAIIWYDGSNDDYADSVKGRFTISRDNSKNTLYLQMNSLRAEDTAVYYCARDSGFYDSYYFDYWGQGTLVTVSS
VL: EIVLTQSPATLSLSPGERATLSCRASQSVSSSYLAWYQQKPGQAPRLLIYDASNRATGIPARFSGSGSGTDFTLTISSLEPEDFATYYCQQYNSYPYTFGQGTKLEIK
notes: Reversion mutant of P1-068748 (Kabat names); captured on a Protein A chip
Kd [1]: 5.2 nM | koff [1]: 0.0028 s⁻¹ | kon [1]: 540000 M⁻¹ s⁻¹ | Kd [2]: 410 nM | koff [2]: 0.028 s⁻¹ | kon [2]: 69000 M⁻¹ s⁻¹

B2: P1-077867 (P1-068748 H32Y) (antibody, V domains shown)
VH: B1 VH with S31H, H32Y
VL: B1 VL
notes: as for B1
Kd [1]: 2.2 nM | koff [1]: 0.0029 s⁻¹ | kon [1]: 1.3e+06 M⁻¹ s⁻¹ | Kd [2]: 230 nM | koff [2]: 0.026 s⁻¹ | kon [2]: 120000 M⁻¹ s⁻¹

B4: P1-077847 (P1-068744 H50I E59Y) (antibody, V domains shown)
VH: B1 VH with S31E, H32Y, D58K, D59Y, D104E, Y110E
VL: B1 VL
Kd (hVISTA-ECD 6-His tag [3]): 2.7 nM | koff (hVISTA-ECD 6-His tag [3]): 0.0032 s⁻¹ | kon (hVISTA-ECD 6-His tag [3]): 1.2e+06 M⁻¹ s⁻¹ | Kd (hVISTA-ECD 6-His tag [4]): 29 nM | koff (hVISTA-ECD 6-His tag [4]): 0.0035 s⁻¹ | kon (hVISTA-ECD 6-His tag [4]): 120000 M⁻¹ s⁻¹

B5: P1-077849 (P1-068744 E59Y E100S) (antibody, V domains shown)
VH: B1 VH with S31E, H32Y, I50H, D58K, D59Y, D104S, Y110E
VL: B1 VL
Kd (hVISTA-ECD 6-His tag [3]): 220 nM | koff (hVISTA-ECD 6-His tag [3]): 0.11 s⁻¹ | kon (hVISTA-ECD 6-His tag [3]): 500000 M⁻¹ s⁻¹ | Kd (hVISTA-ECD 6-His tag [4]): 6600 nM | koff (hVISTA-ECD 6-His tag [4]): 0.35 s⁻¹ | kon (hVISTA-ECD 6-His tag [4]): 53000 M⁻¹ s⁻¹

B6: P1-077863 (P1-068744 E59Y E102Y) (antibody, V domains shown)
VH: B1 VH with S31E, H32Y, I50H, D58K, D59Y, D104E
VL: B1 VL
Kd (hVISTA-ECD 6-His tag [3]): 130 nM | koff (hVISTA-ECD 6-His tag [3]): 0.017 s⁻¹ | kon (hVISTA-ECD 6-His tag [3]): 140000 M⁻¹ s⁻¹ | Kd (hVISTA-ECD 6-His tag [4]): 1100 nM | koff (hVISTA-ECD 6-His tag [4]): 0.055 s⁻¹ | kon (hVISTA-ECD 6-His tag [4]): 63000 M⁻¹ s⁻¹

B7: P1-077875 (P1-068748 H31S H32Y) (antibody, V domains shown)
VH: B1 VH with H32Y
VL: B1 VL
notes: as for B1
Kd [1]: 0.94 nM | koff [1]: 0.0018 s⁻¹ | kon [1]: 1.9e+06 M⁻¹ s⁻¹ | Kd [2]: 130 nM | koff [2]: 0.021 s⁻¹ | kon [2]: 160000 M⁻¹ s⁻¹

B12: P1-077853 (P1-068744 E31S E102Y) (antibody, V domains shown)
VH: B1 VH with H32Y, I50H, D58K, D59Y, Y60E, D104E
VL: B1 VL
Kd (hVISTA-ECD 6-His tag [3]): 18 nM | koff (hVISTA-ECD 6-His tag [3]): 0.0019 s⁻¹ | kon (hVISTA-ECD 6-His tag [3]): 110000 M⁻¹ s⁻¹ | Kd (hVISTA-ECD 6-His tag [4]): 1200 nM | koff (hVISTA-ECD 6-His tag [4]): 0.024 s⁻¹ | kon (hVISTA-ECD 6-His tag [4]): 21000 M⁻¹ s⁻¹

B13: P1-068748 (antibody, V domains shown)
VH: B1 VH with S31H
VL: B1 VL
notes: captured on a Protein A chip
Kd [1]: 11 nM | koff [1]: 0.0035 s⁻¹ | kon [1]: 310000 M⁻¹ s⁻¹ | Kd [2]: 600 nM | koff [2]: 0.032 s⁻¹ | kon [2]: 54000 M⁻¹ s⁻¹

Next, values leading:

Kd [1]: 0.43 nM | koff [1]: 0.00058 s⁻¹ | kon [1]: 1.4e+06 M⁻¹ s⁻¹ | Kd [2]: 4.7 nM | koff [2]: 0.0019 s⁻¹ | kon [2]: 400000 M⁻¹ s⁻¹
B3: P1-077893 (P1-068748 D57K D100S) (antibody, V domains shown)
VH: B1 VH with S31H, D58K, D104S
VL: B1 VL
notes: Reversion mutant of P1-068748 (Kabat names); the antibody was captured on a Protein A chip, so an Fc was present

Kd [1]: 2.2 nM | koff [1]: 0.0019 s⁻¹ | kon [1]: 840000 M⁻¹ s⁻¹ | Kd [2]: 270 nM | koff [2]: 0.024 s⁻¹ | kon [2]: 88000 M⁻¹ s⁻¹
B8: P1-077877 (P1-068748 H32Y D57K) (antibody, V domains shown)
VH: B1 VH with S31H, H32Y, D58K
VL: B1 VL
notes: as for B1

Kd [1]: 6.7 nM | koff [1]: 0.002 s⁻¹ | kon [1]: 310000 M⁻¹ s⁻¹ | Kd [2]: 510 nM | koff [2]: 0.035 s⁻¹ | kon [2]: 68000 M⁻¹ s⁻¹
B9: P1-077883 (P1-068748 H31S D57K) (antibody, V domains shown)
VH: B1 VH with D58K
VL: B1 VL
notes: as for B1

Kd [1]: 0.36 nM | koff [1]: 0.00099 s⁻¹ | kon [1]: 2.7e+06 M⁻¹ s⁻¹ | Kd [2]: 2.1 nM | koff [2]: 0.0025 s⁻¹ | kon [2]: 1.2e+06 M⁻¹ s⁻¹
B10: P1-077891 (P1-068748 H32Y D100S) (antibody, V domains shown)
VH: B1 VH with S31H, H32Y, D104S
VL: B1 VL
notes: as for B1

Kd [1]: 0.52 nM | koff [1]: 0.0011 s⁻¹ | kon [1]: 2.1e+06 M⁻¹ s⁻¹ | Kd [2]: 3 nM | koff [2]: 0.0027 s⁻¹ | kon [2]: 910000 M⁻¹ s⁻¹
B11: P1-077887 (P1-068748 H31S D100S) (antibody, V domains shown)
VH: B1 VH with D104S
VL: B1 VL
notes: as for B1
